Assay results: the supplement of paper PMC12042874
± gives the uncertainty stated by the source.

Assay: amyloid nucleation score (Sup35N fusion, yeast selection) (log enrichment); library NNK2; higher = more nucleation; inactive = no reads after selection
How it was run: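 Sup35N was fused to peptides of 20 random codons and expressed in psi-negative yeast, which were induced with 100 μM copper sulfate for 24 hours and then grown on medium lacking adenine and uracil for 7 days at 30°C. Plasmid inserts from input and output were sequenced on Illumina. The nucleation score is the DiMSum log enrichment of output over input reads, centred on the mode score of non-aggregating sequences. Sequences with under 100 input reads were left out, and random libraries had three technical output replicates.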

Substance	amyloid nucleation score
VNRSTELHFIVMREMVWLKS	-0.287 ± 0.62
VNRVTRPNECYACQYMFGRW	1.19 ± 0.18
VNSMAMLCLRICIGTHQMCG	5.03 ± 0.054
VNSNINFMEGYGCFKKIVNF	-1.36 ± 0.75
VNVCWLKSATPNSCVDLVNI	0.946 ± 0.6
VNVDWCLLSVLVFNLETNPR	6.699 ± 0.032
VNVYLFYYYPHSSHCYIF	7.658 ± 0.056
VNWFRLWRTSQLLGRMMLCL	0.427 ± 0.56
VNWLCRSWRSNRSLEG	4.33 ± 0.087
VNYSYVATSYRLVAILSNVW	-1.36 ± 0.62
VPEFCVSSCNSVNLRASE	1.78 ± 0.14
VPGRYFSQELVFTLFLGMAK	-1.43 ± 0.61
VPKVKNLDWSSELAKFKLEV	2.95 ± 0.1
VPRSQIVVGIMFP	-1.06 ± 0.55
VPSHRPFVYHRKDLGFLGSV	0.269 ± 0.6
VPTLCLVLDRLLDSNR	-1.39 ± 0.62
VPVTGSNLPAVCKGHGVEYG	-0.045 ± 0.41
VPWLNGRVVASRKDKTRSSR	0.009 ± 0.76
VQKRRGFILTSFR	-0.173 ± 0.39
VQMGRPWTGALMVSYMIVNH	6.18 ± 0.063
VQVCKMICRFISLWGLLA	0.006 ± 0.44
VRAQKRSWGQGSL	1.23 ± 0.14
VRAYLQYR	0.094 ± 0.74
VREVDILYYC	0.418 ± 0.48
VRFTLYGCWGLMFFTMVGR	inactive

Substance	amyloid nucleation score
VRFYVCLFLRNEMKVGRMTW	3.86 ± 0.064
VRILYGS	6.06 ± 0.082
VRISAMVITV	-0.684 ± 0.55
VRIYTHWTRSYRPKFRSTWT	0.641 ± 0.74
VRKLSRNLMICYKTVLSGDC	-0.105 ± 0.65
VRLLGYIWKLLPHVVNQKV	0.31 ± 0.46
VRLTMQYGHVYPGCSLLPYV	4.75 ± 0.049
VRMWRGE	0.083 ± 0.49
VRNFYLYVMWPWVQEFY	7.457 ± 0.061
VRQRNNWFTMVIVCVISVMA	3.52 ± 0.13
VRRHADRGGVLAEISNEVVQ	0.608 ± 0.24
VRTIF	inactive
VSAELWIQSSVTSAYIIWQL	0.98 ± 0.81
VSCVCHYVNNFNPMLCNRKC	-0.064 ± 0.8
VSDDHFINCFYGQVSQRKVK	inactive
VSDRLTMFKSVRSVWMCWGQ	-0.146 ± 0.61
VSEANVTYINFFC	4.36 ± 0.089
VSFWFVFFWMISTRSEMMDR	-1.08 ± 0.53
VSFYDVH	0.011 ± 1.1
VSGLPN	inactive
VSGSSHVVKWVMKEGVIFI	inactive
VSHILINVSRGLRGS	-0.261 ± 0.8
VSIFMQRR	2.76 ± 0.13
VSKKFIIVVRNREFSP	4.43 ± 0.086
VSLIFQIRLRHRLTGAQMKR	0.762 ± 0.37

Substance	amyloid nucleation score
VSMIVGSDNVPVSFETDVSV	1.01 ± 0.39
VSNRLRLSFKRVPHHAGYRP	2.76 ± 0.2
VSRDLEVH	-0.001 ± 0.31
VSTSYVTTIVF	-0.237 ± 0.41
VSVDGKLRFRPT	0.313 ± 0.45
VSYSGNRYWCSFVNKKAGGN	1.32 ± 0.27
VSYYIRVYF	5.648 ± 0.054
VTCASWYYGKISGLYACYRL	0.641 ± 0.34
VTDRNIRLDPVALKHASVYG	-0.368 ± 0.38
VTGIATTS	0.44 ± 0.3
VTGTT	-0.01 ± 1
VTICIGVAFYVFCTSTSNCM	5.242 ± 0.039
VTKILCSRTWGKSG	0.325 ± 0.44
VTKSYITRSVFSVGNYSETS	-0.226 ± 1.1
VTKVLQFCSPSYLLYSRLNV	0.709 ± 0.47
VTLIRSSRVATSCHGGTLFC	3.45 ± 0.092
VTSGGLEWSRD	3.11 ± 0.05
VTSNGKRTWHVAAAFGAPGE	2.54 ± 0.12
VTVRAQY	-0.497 ± 0.45
VVDSTVGRADGTCGGVVGFA	0.87 ± 0.41
VVDVVIGYWGRVMSDGCVAG	0.816 ± 0.24
VVEFNVLHDDLEVQDKT	-1.16 ± 0.56
VVFRIVNRACVMYGVTGGND	-0.915 ± 0.63
VVILS	1.28 ± 0.29
VVILTFKAVYTAKFYACCAV	-0.104 ± 0.45

Substance	amyloid nucleation score
VVKYFCDHI	4.5 ± 0.07
VVNDIATLLRVMNEYYAESA	-0.531 ± 0.79
VVNKLF	inactive
VVPCWSVNKDSRSDRSD	-0.1 ± 1
VVRAVYGYQFYGIVL	0.648 ± 0.25
VVRHLWMTKYCRFMFISTVY	-0.898 ± 0.34
VVRHSLKRL	-0.228 ± 1.1
VVRMRENKRNIL	inactive
VVRVLLVWMFLLTLWHHLVN	-0.158 ± 0.34
VVSSGLHHRLLLCRIEGA	0.526 ± 0.26
VVSTSYIGGKKRSFCVRCGG	-0.73 ± 0.49
VVSVCLLGHNDKVLSYAQLC	0.071 ± 0.51
VVVFMHV	1.51 ± 0.32
VVVPDGFRNYEYGNSTLFVI	-0.99 ± 1.1
VVWVSITKWATRAVISHGDT	0.617 ± 0.32
VVYLEIVTRGATGYLVCLPC	-0.437 ± 0.6
VVYRYRVRHCL	0.725 ± 0.27
VWALKGMIYN	0.33 ± 0.17
VWDNIVPPQLISRRS	-0.813 ± 1.1
VWLTKIIGPVRKLVKNTLGC	5.542 ± 0.047
VWMHMSGSIIKSWFLVRCFS	-0.506 ± 0.38
VWQQS	0.668 ± 0.49
VWYRLTDAVYKRLTFLDII	-0.416 ± 0.56
VYALTGMDKYGGLALYLSWR	0.307 ± 0.44
VYAYRTEFQRW	0.886 ± 0.47

Substance	amyloid nucleation score
VYCFNSRSNFHTLMLSSGYG	-0.594 ± 0.55
VYCVDIFCTESLVCPTQTWG	6.055 ± 0.06
VYELCCLYMWLGHSNYAADM	5.33 ± 0.044
VYGCGSCLNCVVCMERCG	9.094 ± 0.048
VYKMIVSRVHC	-1.17 ± 1
VYLGIFRL	2.76 ± 0.13
VYNLARSRSKAERVV	0.201 ± 1
VYNWGGRLKP	0.147 ± 0.49
VYPVSPIMKGV	0.163 ± 0.49
VYTQYYNTKSKISYCFLRLI	inactive
VYTVVYGYNWISCDHFSWDT	7.47 ± 0.08
VYVFDIVRLG	0.465 ± 0.8
WCCPPHGRQP	0.876 ± 0.43
WCEGHKSW	-0.817 ± 1
WCFCSLLCVSGCLRPDPELP	1.28 ± 0.22
WCFFRVAFNW	1.88 ± 0.17
WCFLT	-0.343 ± 1.1
WCIKANSMSRNVYVEEMGER	-0.143 ± 0.24
WDIIF	-1.45 ± 0.34
WDNDQHIQRNLY	inactive
WDSDRSYVLSLFADVPLAKC	0.035 ± 1
WELHMI	-0.61 ± 1.1
WFDKFRMCEEFAYYFFLPQW	-0.856 ± 0.63
WFENNDESMGQEWNKHCTSV	0.718 ± 0.24
WFHVITFFLGASCIMWTKTR	inactive

Substance	amyloid nucleation score
WFIILRLIYVYGTNCAVYMV	-0.003 ± 0.42
WFRKGHHVVT	1.08 ± 0.41
WFSECCSMASIGHSDTMDGS	-0.567 ± 1.1
WGENARAESRTEEMLL	1.81 ± 0.22
WHCVRVIQRSWCVKEGSKGC	0.118 ± 0.45
WHENMSGTPKLASTNNGSKR	2.61 ± 0.18
WHGPYYCGGCRTDIVCWNRA	5.888 ± 0.05
WHSDSQTRRSSLSLLVCQID	0.935 ± 0.66
WIILGTSSAVWRTHDYLA	3.43 ± 0.06
WIMNKANNCKCFIEDTNWS	7.352 ± 0.044
WKIQACVSYQQGAVRGVCVD	0.139 ± 0.34
WLDSQWNLYLDLYHLYRSCR	3.22 ± 0.12
WLLGMYVIRGRQSYNSKDVR	3.38 ± 0.054
WLLVDGEH	0.025 ± 0.45
WLMTYFNISSGFKSVTWVES	3.69 ± 0.11
WLPNQVKGHLSFRMCSDIRH	4.334 ± 0.035
WLPYTCNFVMTVSRYSSMRG	inactive
WLSTVVL	inactive
WLTEVY	-0.587 ± 0.79
WLVSSVSCQPMSQSSFVGGL	5.498 ± 0.05
WLVTAMSMLVCLPGYESLYW	1.98 ± 0.21
WLWIKLEPLICSNFCWVVLW	0.537 ± 0.48
WLYYDGSFW	-0.429 ± 0.76
WMGIWYGCVWVFGMVGANNR	2.2 ± 0.063
WMLCLDLKANKMCLMVISME	-1.32 ± 0.76

Substance	amyloid nucleation score
WMLNLDLLIFASLRGVVEGD	inactive
WMYTSRPNSSQTIRGWRATY	-0.046 ± 0.39
WNECVFGAPAFSRE	3.11 ± 0.15
WNVFKLSGSSYV	-0.483 ± 0.31
WQCKLPSNYGFGTK	0.11 ± 0.77
WQRLKLSEKLVGSAVPLKAG	4.44 ± 0.11
WQRRIGKFCDKQWSFQMMVH	-0.021 ± 0.63
WRASK	3.23 ± 0.057
WRCDLSNPTFAMYVDAVWAS	1.16 ± 0.18
WRKRYEYTVRVGRSAKSTLM	0.455 ± 0.37
WRNLDLK	-0.562 ± 1.1
WRRFRFLLPWSLRPMS	inactive
WRYGNDYTFLIMDGC	-0.511 ± 0.37
WSCNRNCSIFDR	-0.373 ± 0.45
WSDACSGCNFK	inactive
WSDSFTCDCGKLITTSSRLS	2.02 ± 0.15
WSFLYE	-0.548 ± 0.33
WSGWSQGDGLVQGQVMRAFV	-0.284 ± 0.79
WSMFLLRMAPMRMLTTINFV	-0.504 ± 0.33
WSPYEEPR	0.298 ± 0.35
WSRMLFGECRSGKLRLPMPR	3.73 ± 0.099
WTCDCSLKVFCNM	4.91 ± 0.056
WTPTVFVDMHPSNGLVDILY	-0.896 ± 0.61
WTTMRLFLDFMYTLDRVGST	-0.291 ± 1.1
